# Results as given in patent US20130108608.
# T1: recombinant human full-length TrpRS with C-terminal His6 tag
# T1 chain: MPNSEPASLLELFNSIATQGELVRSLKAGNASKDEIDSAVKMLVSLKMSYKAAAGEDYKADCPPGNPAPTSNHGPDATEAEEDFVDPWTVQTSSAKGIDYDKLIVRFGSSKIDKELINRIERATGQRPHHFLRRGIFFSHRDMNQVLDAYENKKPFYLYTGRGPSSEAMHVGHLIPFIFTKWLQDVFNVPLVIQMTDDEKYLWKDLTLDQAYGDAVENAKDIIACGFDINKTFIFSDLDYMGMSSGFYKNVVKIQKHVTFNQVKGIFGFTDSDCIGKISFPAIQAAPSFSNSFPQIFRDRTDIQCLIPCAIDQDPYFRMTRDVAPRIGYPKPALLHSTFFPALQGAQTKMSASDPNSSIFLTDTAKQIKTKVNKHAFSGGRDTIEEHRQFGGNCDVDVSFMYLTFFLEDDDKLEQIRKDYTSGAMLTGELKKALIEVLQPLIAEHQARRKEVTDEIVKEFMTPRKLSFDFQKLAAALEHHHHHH
# B1: PMN elastase (protein)
# chain: IVGGRRARPHAWPFMVSLQLRGGHFCGATLIAPNFVMSAAHCVANVNVRAVRVVLGAHNLSRREPTRQVFAVQRIFENGYDPVNLLNDIVILQLNGSATINANVQVAQLPAQGRRLGNGVQCLAMGWGLLGRNRGIASVLQELNVTVVTSLCRRSNVCTLVRGRQAGVCFGDSGSPLVCNGLIHGIASFVRGGCASGLYPDAFAPVAQFVNWIDSIIQ
# Biological target: T1, recombinant human full-length TrpRS …
protein,measurement,value
B1,"cleavage of TrpRS by the protease, fragments on 12.5% SDS-PAGE","PMN elastase cleavage of a full-length TrpRS of about 53 kDa generated a major fragment of about 46 kDa (SEQ ID NO: 5, T1, having the C-terminal histidine tag, or an SY variant thereof) and a minor fragment of about 43.5 kDa"
